Data taken from article PMC10183829 (2023).
No end group written: not given here. TAMRA = 5(6)-carboxytetramethylrhodamine

B6: ATG8A (purified) (natural protein)
chain: MAKSSFKISNPLEARMSESSRIREKYPDRIPVIVEKAGQSDVPDIDKKKYLVPADLTVGQFVYVVRKRIKLGAEKAIFVFVKNTLPPTAALMSAIYEEHKDEDGFLYMTYSGENTFG

Assays:
GABARAP (purified) = GABARAP (purified) (human, UniProt O95166 3-116); assay: ITC
ATG8A (purified) = biological target: B6; assay: FP
HsUFM1 (purified) = HsUFM1 (purified) (human, UniProt P61960 1-85); assay: ITC
cAIM mut = assay: FP
sAIM3 = assay: FP

Sequence of HsUFM1 (purified) (P61960 whole entry): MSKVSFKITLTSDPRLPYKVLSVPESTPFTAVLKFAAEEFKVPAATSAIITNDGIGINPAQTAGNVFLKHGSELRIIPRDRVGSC
Sequence of GABARAP (purified) (O95166 3-116): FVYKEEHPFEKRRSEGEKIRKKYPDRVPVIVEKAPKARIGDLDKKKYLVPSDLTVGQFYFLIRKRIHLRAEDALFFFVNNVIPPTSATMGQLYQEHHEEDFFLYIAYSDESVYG

B1: HsC53 wt (purified) (natural protein)
chain: MEDHQHVPIDIQTSKLLDWLVDRRHCSLKWQSLVLTIREKINAAIQDMPESEEIAQLLSGSYIHYFHCLRILDLLKGTEASTKNIFGRYSSQRMKDWQEIIALYEKDNTYLVELSSLLVRNVNYEIPSLKKQIAKCQQLQQEYSRKEEECQAGAAEMREQFYHSCKQYGITGENVRGELLALVKDLPSQLAEIGAAAQQSLGEAIDVYQASVGFVCESPTEQVLPMLRFVQKRGNSTVYEWRTGTEPSVVERPHLEELPEQVAEDAIDWGDFGVEAVSEGTDSGISAEAAGIDWGIFPESDSKDPGGDGIDWGDDAVALQITVLEAGTQAPEGVARGPDALTLLEYTETRNQFLDELMELEIFLAQRAVELSEEADVLSVSQFQLAPAILQGQTKEKMVTMVSVLEDLIGKLTSLQLQHLFMILASPRYVDRVTEFLQQKLKQSQLLALKKELMVQKQQEALEEQAALEPKLDLLLEKTKELQKLIEADISKRYSGRPVNLMGTSL
GABARAP (purified)
  Kd: 20.9 µM

B2: peptide derived from the cAIM of the AtC53 IDR (peptide)
chain: {TAMRA}-DLGSYEIVNASDI
ATG8A (purified)
  Kd: 62.5 µM

B3: peptide derived from sAIM1 (AtC53 IDR) (peptide)
chain: {TAMRA}-AADSIDWDITVET
ATG8A (purified)
  Kd: 97.6 µM

B4: peptide derived from sAIM2 (AtC53 IDR) (peptide)
chain: {TAMRA}-ETPEIDWDVSMVEEV
ATG8A (purified)
  Kd: 56.8 µM

B5: UBA5 LIR (peptide)
chain: GPLHDDNEWNISVVDD
HsUFM1 (purified)
  Kd: 7.51 µM

## B6
cAIM mut
  Kd: 94.3 µM
sAIM3
  Kd: 176 µM
